Data published in publication PMC12578939.

Biological target: microtubules polymerised from bovine brain tubulin (bovine) (UniProt Q6B856)
Test: TIRF microscopy of binding to immobilised microtubules

“augmin octamer lacking the N-terminal MTBR of Haus8 (residues 1-154) (from UniProt Q0IHJ3;Q6DCY9) (complex)” was tested, and the reduction in MT binding against wildtype augmin was 50%.
